Results: patent publication US20250258178A1 (SHIONOGI, published 2025)

T1: human histidine-rich glycoprotein (HRG), purified from human plasma (human, UniProt P04196 19-525)
T1 construct: also called human purified HRG; human purified HRG protein
T1 sequence: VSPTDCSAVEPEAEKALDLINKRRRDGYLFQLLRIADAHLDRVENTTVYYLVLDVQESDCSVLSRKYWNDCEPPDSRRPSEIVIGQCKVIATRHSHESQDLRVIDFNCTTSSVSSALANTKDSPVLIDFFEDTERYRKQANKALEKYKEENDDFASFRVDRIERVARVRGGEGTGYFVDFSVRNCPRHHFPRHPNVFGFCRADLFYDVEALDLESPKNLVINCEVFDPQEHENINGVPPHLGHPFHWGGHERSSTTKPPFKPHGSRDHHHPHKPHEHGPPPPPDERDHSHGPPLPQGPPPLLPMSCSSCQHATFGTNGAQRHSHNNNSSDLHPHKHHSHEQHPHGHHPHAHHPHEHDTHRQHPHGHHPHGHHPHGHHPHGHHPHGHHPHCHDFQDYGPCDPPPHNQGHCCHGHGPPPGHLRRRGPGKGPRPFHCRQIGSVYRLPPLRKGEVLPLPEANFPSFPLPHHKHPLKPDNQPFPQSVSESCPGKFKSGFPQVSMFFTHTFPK


Columns and labels:
[1] = biological target: T1, human histidine-rich glycoprotein …; assay: sandwich ELISA, HRG captured by solid phase 3-4E
Procedure: (§1) The capture antibody solution was dispensed at 25 μL per well into 384-well Maxisorp plates (NUNC), and the plates were incubated at room temperature for 3 hours. The plates were washed twice with 120 μL of washing solution per well (0.05% Tween 20-containing PBS). A blocking solution (1% BSA-containing PBS) was dispensed at 30 μL per well, and the plates were incubated at room temperature for 3 hours. The blocking solution was removed followed by dispensing the standard substance for evaluation at 20 μL per well (n=2), and the plates were incubated at room temperature for 3 hours. After washing the plates four times with the washing solution as described above, the solution of each detector antibody was dispensed at 10 μL per well, followed by dispensing a horseradish peroxidase-streptavidin solution (0.05 μg/mL) at 10 μL per well, and the plates were incubated at room temperature for 1 hour. After washing the plates four times with the washing solution as described above, a chromogenic substrate solution (TMB (3,3′,5,5′-tetramethylbenzidine)) was dispensed at 20 μL per well followed by incubating the plates at room temperature for 10 minutes, then a reaction stop solution 0.5 M H₂SO₄ was added at 20 μL/well, and the absorbance at 450 nm was measured.
(§2) The results regarding the evaluation of combinations chosen from 21 types of anti-HRG monoclonal antibodies are shown in Table 1. In Table 1, the absorbance at a wavelength of 450 nm of each combination was determined as follows: less than 1.0 OD: −, 1.0 OD or more and less than 2.0 OD: +, 2.0 OD or more and less than 3.0 OD: ++, and 3.0 OD or more: +++. The combinations of antibodies which could construct a sandwich ELISA system having enough level of absorbance change were 86 sets evaluated as ++ or +++ in Table 1.

[2] = biological target: T1, human histidine-rich glycoprotein …; assay: sandwich ELISA, HRG captured by solid phase 13-2G
Procedure: as §1, §2

[3] = biological target: T1, human histidine-rich glycoprotein …; assay: sandwich ELISA, HRG captured by solid phase 19-1C
Procedure: as §1, §2

[4] = biological target: T1, human histidine-rich glycoprotein …; assay: sandwich ELISA, HRG captured by solid phase 31-1H
Procedure: as §1, §2

[5] = biological target: T1, human histidine-rich glycoprotein …; assay: sandwich ELISA, HRG captured by solid phase 32-4C
Procedure: as §1, §2

[6] = biological target: T1, human histidine-rich glycoprotein …; assay: sandwich ELISA, HRG captured by solid phase 65-3A
Procedure: as §1, §2

[7] = biological target: T1, human histidine-rich glycoprotein …; assay: sandwich ELISA, HRG captured by solid phase 69-1A
Procedure: as §1, §2

[8] = biological target: T1, human histidine-rich glycoprotein …; assay: sandwich ELISA, HRG captured by solid phase 81-2C
Procedure: as §1, §2

[9] = biological target: T1, human histidine-rich glycoprotein …; assay: sandwich ELISA, HRG captured by solid phase 88-2E
Procedure: as §1, §2

[10] = biological target: T1, human histidine-rich glycoprotein …; assay: sandwich ELISA, HRG captured by solid phase 50-6C-2A
Procedure: as §1, §2

[11] = biological target: T1, human histidine-rich glycoprotein …; assay: sandwich ELISA, HRG captured by solid phase 67-8A-5F
Procedure: as §1, §2

[12] = biological target: T1, human histidine-rich glycoprotein …; assay: sandwich ELISA, HRG captured by solid phase 35-3G-10C
Procedure: as §1, §2

[13] = biological target: T1, human histidine-rich glycoprotein …; assay: sandwich ELISA, HRG captured by solid phase 94-7A-3C-3D
Procedure: as §1, §2

[14] = biological target: T1, human histidine-rich glycoprotein …; assay: sandwich ELISA, HRG captured by solid phase 6-12A-10B-9G
Procedure: as §1, §2

[15] = biological target: T1, human histidine-rich glycoprotein …; assay: sandwich ELISA, HRG captured by solid phase 9-1F
Procedure: as §1, §2

[16] = biological target: T1, human histidine-rich glycoprotein …; assay: sandwich ELISA, HRG captured by solid phase 14-6F
Procedure: as §1, §2

[17] = biological target: T1, human histidine-rich glycoprotein …; assay: sandwich ELISA, HRG captured by solid phase 58-5C
Procedure: as §1, §2

[18] = biological target: T1, human histidine-rich glycoprotein …; assay: sandwich ELISA, HRG captured by solid phase 75-2D
Procedure: as §1, §2

[19] = biological target: T1, human histidine-rich glycoprotein …; assay: sandwich ELISA, HRG captured by solid phase 93-4C
Procedure: as §1, §2

[20] = biological target: T1, human histidine-rich glycoprotein …; assay: sandwich ELISA, HRG captured by solid phase 40-10G
Procedure: as §1, §2

[21] = biological target: T1, human histidine-rich glycoprotein …; assay: sandwich ELISA, HRG captured by solid phase 42-10D
Procedure: as §1, §2

| Binder | absorbance at 450 nm [1] [OD] | absorbance at 450 nm (OD450) [2] [od] | absorbance at 450 nm [3] [OD] | absorbance at 450 nm [4] [OD] | absorbance at 450 nm [5] [OD] | absorbance at 450 nm [6] [OD] | absorbance at 450 nm [7] [OD] | absorbance at 450 nm [8] [OD] | absorbance at 450 nm [9] [OD] | absorbance at 450 nm (OD450) [10] [od] | absorbance at 450 nm (OD450) [11] [od] | absorbance at 450 nm [12] [OD] | absorbance at 450 nm [13] [OD] | absorbance at 450 nm [15] [OD] | absorbance at 450 nm (OD450) [16] [od] | absorbance at 450 nm (OD450) [17] [od] | absorbance at 450 nm (OD450) [18] [od] | absorbance at 450 nm (OD450) [19] [od] | absorbance at 450 nm (OD450) [20] [od] | absorbance at 450 nm [21] [OD] | other results |
| --- | --- | --- | --- | --- | --- | --- | --- | --- | --- | --- | --- | --- | --- | --- | --- | --- | --- | --- | --- | --- | --- |
| anti-HRG monoclonal antibody 3-4E (antibody, V domains shown, Mouse (BALB/c) hybridoma monoclonal, Protein A purified; biotin-labeled when used as detection antibody) VH: QVQLQQSGAELMKPGASVKISCKATGYTFSTFWMEWVKQRPGHGLEWIGEILPGSGNANYNEKFKGKATFTADTSSNTAYMQLSSLTSEDSAVYYCAIHYYGYGFAYWGQGTLVTVSA VL: DNVLTQSPAIMSASLGERVTMTCTASSSVSSSYLHWYQQKPGSSPKLWIYTTSNLASGVPVRFSGSGSGTSYSLTISSMEAEDAATYYCHQYHRSPWTFGGGTKLEIK | < 1 | ≥ 3 | < 1 | < 1 | < 1 | < 1 | < 1 | < 1 | < 1 | ≥ 3 | 2 to 3 | < 1 | < 1 | – | – | – | – | – | – | – | absorbance at 450 nm (OD450) [14]: ≥ 3 od |
| anti-HRG monoclonal antibody 65-3A (antibody, V domains shown, Mouse hybridoma monoclonal) VH: QVILKESGPGILQPSQTLSLTCSFSGFSLSTSGVGVSWIRQPSGKGLEWLAHIYWDDDKHYNPSLKSRLTISKDTSRNQVFLRITSVDTADTATYYCALGTVGGPWFPYWGQGTLVTVSA VL: DVQMNQSHKFMSTSVGDRVSITCKASQDVSTAVAWYQQKPGQSPKILIYWASIRHTGVPDRFTGSGSGTDYTLTISSVQAEDLTLYYCQQHYSTPWTFGGGTKLEIK | < 1 | 2 to 3 | < 1 | < 1 | < 1 | < 1 | < 1 | < 1 | – | 2 to 3 | 2 to 3 | < 1 | < 1 | < 1 | 1 to 2 | 2 to 3 | 2 to 3 | 2 to 3 | 2 to 3 | < 1 | absorbance at 450 nm (OD450) [14]: ≥ 3 od |
| anti-HRG monoclonal antibody 50-6C-2A (antibody, V domains shown, Mouse hybridoma monoclonal) VH: EVQLQESGPGLVKPSQSLSLTCTVTGYSITSDYAWNWIRQFPGNKLEWMGYISYSGSTNYNPSLKSRISITRDTSKNQFFLQLNSVTTEDTATYYCASASYRYAWFAYWGQGTLVTVST VL: DIQMTQTTSSLSASLGDRVTISCRASQDISNYLNWYQQKPDGTVKLLIYYTSRLHSGVPSRFSGSGSGTDYSLTISNLEQEDIGTYFCQQGNTLPTFGGGTKLEIK | – | – | < 1 | < 1 | < 1 | – | < 1 | < 1 | < 1 | – | – | < 1 | – | < 1 | 2 to 3 | 1 to 2 | ≥ 3 | 2 to 3 | 1 to 2 | < 1 | absorbance at 450 nm (OD450) [1]: ≥ 3 od; absorbance at 450 nm [2]: < 1 OD; absorbance at 450 nm (OD450) [6]: 1 to 2 od; absorbance at 450 nm [10]: < 1 OD; absorbance at 450 nm [11]: < 1 OD; absorbance at 450 nm (OD450) [13]: 1 to 2 od; absorbance at 450 nm [14]: < 1 OD |
| anti-HRG monoclonal antibody 6-12A-10B-9G (antibody, V domains shown, Mouse hybridoma monoclonal; biotin-labeled as detection antibody and for bead immobilisation) VH: EVQLQESGPGLVKPSQSLSLTCTVTGYSITSDYAWNWIRQFPGNKLEWMGYISYSGSTNYNPSLRSRISITRDTSKNQFFLQLISVTTEDTATYYCGSASYRYAWFAYWGQGTLVTVSA VL: DIQVTQTTSSLSASLGDRVTISCRASQDISNYLNWYQQKPDGTVKLLIYYTSRLHSGVPSRFSGSGSGTDYSLTISNLEQEDIATYFCQQGNTLPTFGGGTKLEIK | – | – | < 1 | < 1 | < 1 | – | < 1 | < 1 | – | – | – | < 1 | – | < 1 | ≥ 3 | 2 to 3 | ≥ 3 | ≥ 3 | 2 to 3 | < 1 | absorbance at 450 nm (OD450) [1]: ≥ 3 od; absorbance at 450 nm [2]: < 1 OD; absorbance at 450 nm (OD450) [6]: 2 to 3 od; absorbance at 450 nm [10]: < 1 OD; absorbance at 450 nm [11]: < 1 OD; absorbance at 450 nm (OD450) [13]: 1 to 2 od; absorbance at 450 nm [14]: < 1 OD |
